T1: 125I-α-bungarotoxin, P60615
T1 chain: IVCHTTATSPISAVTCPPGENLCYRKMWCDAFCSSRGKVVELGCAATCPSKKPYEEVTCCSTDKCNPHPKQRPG


Biological target: T1, 125I-α-bungarotoxin, P60615
Assay: not given
With Ac-SERFYECCKEP-NH2 (cysteine pairing not given here) the IC50 was 19 µM.
Ac-SERFYECCKEA-NH2 (cysteine pairing not given here) gave an IC50 of over 100 µM.
For Ac-SERFYECCKAP-NH2 (cysteine pairing not given here), the IC50 was over 100 µM.
With Ac-SERAYECCKEP-NH2 (cysteine pairing not given here) the IC50 was over 100 µM.
Ac-SERFYEACKEP-NH2 showed an IC50 of over 100 µM.
Ac-SERFYACCKEP-NH2 (cysteine pairing not given here) gave an IC50 of 9.5 µM.
Ac-SARFYECCKEP-NH2 (cysteine pairing not given here) showed an IC50 of 8.4 µM.
With Ac-AERFYECCKEP-NH2 (cysteine pairing not given here) the IC50 was 15 µM.
Ac-SERFYECAKEP-NH2 gave an IC50 of over 100 µM.
For Ac-SERFAECCKEP-NH2 (cysteine pairing not given here), the IC50 was over 100 µM.
In the case of Ac-SERFYECCAEP-NH2 (cysteine pairing not given here), the IC50 is reported as 1.3 µM.
Work on Ac-SEAFYECCKEP-NH2 (cysteine pairing not given here) yielded an IC50 of 9.6 µM.
In the case of Ac-IPGKRSERFYECCKEPYPDV-NH2 (cysteine pairing not given here), the IC50 is reported as 0.2 µM.

Each binder was assayed against β-amyloid1-42, P05067 (assay: cell-based or functional assay).
In the case of Ac-SERFYECCKEP-NH2 (cysteine pairing not given here), the ACh rel % Inh @ 100 µM is reported as 89% and the Inh ACh rel IC50 is reported as 0.125 µM.
Binder Ac-SERFYECCKEA-NH2 (cysteine pairing not given here) has an ACh rel % Inh @ 100 µM of 59% and an Inh ACh rel IC50 of under 10 µM.
Ac-GIPGKRSERFYECCK-NH2 (cysteine pairing not given here) was tested, and the ACh rel % Inh @ 100 µM was 73% and the Inh ACh rel IC50 was 1.21 µM.
Ac-SERFYECCKAP-NH2 (cysteine pairing not given here) showed an ACh rel % Inh @ 100 µM of 75% and an Inh ACh rel IC50 of 0.426 µM.
With Ac-SERAYECCKEP-NH2 (cysteine pairing not given here) the ACh rel % Inh @ 100 µM was 14% and the Inh ACh rel IC50 was over 10 µM.
For Ac-SERFYEACKEP-NH2, the ACh rel % Inh @ 100 µM was 19% and the Inh ACh rel IC50 was over 10 µM.
Ac-SERFYACCKEP-NH2 (cysteine pairing not given here) showed an ACh rel % Inh @ 100 µM of 14% and an Inh ACh rel IC50 of over 10 µM.
For Ac-SARFYECCKEP-NH2 (cysteine pairing not given here), the ACh rel % Inh @ 100 µM was 13% and the Inh ACh rel IC50 was over 10 µM.
With Ac-AERFYECCKEP-NH2 (cysteine pairing not given here) the ACh rel % Inh @ 100 µM was 15% and the Inh ACh rel IC50 was over 10 µM.
Ac-SERFYECAKEP-NH2 showed an ACh rel % Inh @ 100 µM of 85% and an Inh ACh rel IC50 of 0.165 µM.
For Ac-SERFAECCKEP-NH2 (cysteine pairing not given here), the ACh rel % Inh @ 100 µM was 18% and the Inh ACh rel IC50 was over 10 µM.
With Ac-SERFYECCAEP-NH2 (cysteine pairing not given here) the ACh rel % Inh @ 100 µM was 19% and the Inh ACh rel IC50 was over 10 µM.
Ac-SEAFYECCKEP-NH2 (cysteine pairing not given here) showed an ACh rel % Inh @ 100 µM of 70% and an Inh ACh rel IC50 of 0.277 µM.
Work on Ac-IPGKRSERFYECCKEPYPDV-NH2 (cysteine pairing not given here) yielded an ACh rel % Inh @ 100 µM of 73% and an Inh ACh rel IC50 of 0.626 µM.
With Ac-IPGKRSERFYECCKEPYP-NH2 (cysteine pairing not given here) the ACh rel % Inh @ 100 µM was 79% and the Inh ACh rel IC50 was 0.71 µM.
